From publication PMC10457321, “Architecture of the Heme-translocating CcmABCD/E complex required for Cytochrome c maturation” (Nature Communications, 2023)

Columns and labels:
[1] = target: T1, Ccm(ABCD)2 heterooctameric heme translocation complex (Escherichia coli, UniProt P33931 1-207; P0ABL8 1-220; P0ABM1 1-245; P0ABM5 1-69); test: cryo-EM structure; single-particle analysis of the co-expressed, co-purified wild-type CcmABCDE sample in GDN, nucleotide-free, inward-open state; classes Ccm(ABCD)2 at 3.47 A and Ccm(ABCD)2E at 3.81 A; 20 mM Tris/HCl pH 7.5, 150 mM NaCl; conditions: both partners purified
T1 construct: CcmA of Escherichia coli, as m1; CcmB of Escherichia coli, as m2; CcmC of Escherichia coli, as m3; CcmD of Escherichia coli, as m4; Nucleotide-free, inward-open state; C2-symmetric heterooctamer; Used as the target of CcmE; also called CcmABCD complex; source: GDN; copies: 2 + 2 + 2 + 2
T1 sequence 1: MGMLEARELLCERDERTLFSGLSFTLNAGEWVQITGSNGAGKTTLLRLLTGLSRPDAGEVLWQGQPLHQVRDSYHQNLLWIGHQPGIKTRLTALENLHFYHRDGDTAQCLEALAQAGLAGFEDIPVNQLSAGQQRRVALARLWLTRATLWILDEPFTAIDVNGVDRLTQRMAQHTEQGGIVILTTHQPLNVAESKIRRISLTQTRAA
T1 sequence 2: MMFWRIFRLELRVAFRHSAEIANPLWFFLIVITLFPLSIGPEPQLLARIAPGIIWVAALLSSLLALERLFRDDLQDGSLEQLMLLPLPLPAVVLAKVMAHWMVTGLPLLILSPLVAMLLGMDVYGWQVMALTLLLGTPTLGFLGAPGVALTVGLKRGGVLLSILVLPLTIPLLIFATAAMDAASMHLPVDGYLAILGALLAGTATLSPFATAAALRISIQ
T1 sequence 3: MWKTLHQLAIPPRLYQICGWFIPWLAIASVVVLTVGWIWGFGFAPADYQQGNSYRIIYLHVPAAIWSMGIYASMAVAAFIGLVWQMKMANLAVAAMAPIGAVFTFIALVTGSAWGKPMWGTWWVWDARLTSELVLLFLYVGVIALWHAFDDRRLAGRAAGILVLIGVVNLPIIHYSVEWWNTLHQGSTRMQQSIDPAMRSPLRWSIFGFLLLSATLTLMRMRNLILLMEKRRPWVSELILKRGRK
T1 sequence 4: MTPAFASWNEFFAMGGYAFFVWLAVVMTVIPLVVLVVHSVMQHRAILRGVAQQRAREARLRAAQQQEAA

[2] = target: the molecule itself; test: cryo-EM structure; single-particle analysis of the co-expressed, co-purified E154Q^A variant complex in DDM, no ATP added, closed state; Ccm(E154QAB)2CD at 3.94 A
[3] = target: the molecule itself; test: cryo-EM structure; single-particle analysis of the co-expressed, co-purified E154Q^A variant complex in GDN with 2.5 mM ATP added, closed state; Ccm(E154QAB)2CD with ATP at 3.62 A

B1: CcmE, heme chaperone (natural protein, Escherichia coli)
chain: MNIRRKNRLWIACAVLAGLALTIGLVLYALRSNIDLFYTPGEILYGKRETQQMPEVGQRLRVGGMVMPGSVQRDPNSLKVTFTIYDAEGSVDVSYEGILPDLFREGQGVVVQGELEKGNHILAKEVLAKHDENYTPPEVEKAMEANHRRPASVYKDPAS
notes: CcmE of Escherichia coli, monotopic membrane protein with an N-terminal transmembrane helix (modelled N2 to S32) and a periplasmic beta-barrel domain from F37; the ccmE gene stood in the construct used to produce CcmABCD; also called chaperone CcmE; source: GDN
stoichiometry N [1]: 1

B2: CcmB, transmembrane subunit of the core ABC transporter CcmAB (natural protein, Escherichia coli)
chain: MMFWRIFRLELRVAFRHSAEIANPLWFFLIVITLFPLSIGPEPQLLARIAPGIIWVAALLSSLLALERLFRDDLQDGSLEQLMLLPLPLPAVVLAKVMAHWMVTGLPLLILSPLVAMLLGMDVYGWQVMALTLLLGTPTLGFLGAPGVALTVGLKRGGVLLSILVLPLTIPLLIFATAAMDAASMHLPVDGYLAILGALLAGTATLSPFATAAALRISIQ
notes: CcmB of Escherichia coli, integral membrane protein with six transmembrane helices, expressed from the ccm operon amplified from pEC86; Expressed from the cloned ccm operon; no truncation is described; source: DDM or GDN
stoichiometry N [2]: 2

B3: CcmA E154Q variant with N-terminal StrepTag(II) (natural protein, Escherichia coli)
chain: MGMLEARELLCERDERTLFSGLSFTLNAGEWVQITGSNGAGKTTLLRLLTGLSRPDAGEVLWQGQPLHQVRDSYHQNLLWIGHQPGIKTRLTALENLHFYHRDGDTAQCLEALAQAGLAGFEDIPVNQLSAGQQRRVALARLWLTRATLWILDQPFTAIDVNGVDRLTQRMAQHTEQGGIVILTTHQPLNVAESKIRRISLTQTRAA
notes: CcmA of Escherichia coli with the catalytic glutamate of the switch II region (Walker B motif) replaced; Same construct as m1 apart from E154Q; also called E154Q^A variant; ^E154QA; source: DDM or GDN
stoichiometry N [3]: 2
